Among the data in PMC10866537 are Kd values, retold here.

Broadly, the Kd is the concentration at which binding is half-saturated.

The target of experiment [1] is 4-1BBL (Homo sapiens) (UniProt P41273). The settings on record: cited from earlier work.
Experiment [2] addresses mouse 4-1BB–Fc protein (mouse) (UniProt P20334). As to the kind of experiment: SPR; BIAcore X100; siglec-4–Fc or m4-1BB–Fc amine-coupled to CM5; h4-1BB–HIS or m-siglec-4–HIS flowed at 18 to 3000 nM in HBS-EP (10 mM Hepes pH 7.4, 150 mM NaCl, 3 mM EDTA, 0.05% P20); fitted with a 1:2 binding model. A general note: Surface plasmon resonance follows binding to a sensor surface in real time, without labels.

4-1BB, sequence (Q07011 24-255): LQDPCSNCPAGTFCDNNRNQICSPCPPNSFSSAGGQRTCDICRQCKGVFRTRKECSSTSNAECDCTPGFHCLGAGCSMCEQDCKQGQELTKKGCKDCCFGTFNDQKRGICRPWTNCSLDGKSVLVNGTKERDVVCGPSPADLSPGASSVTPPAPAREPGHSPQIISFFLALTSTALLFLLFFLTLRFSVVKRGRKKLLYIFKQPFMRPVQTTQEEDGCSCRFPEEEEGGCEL
mouse 4-1BB–Fc protein (mouse), sequence (P20334 24-187): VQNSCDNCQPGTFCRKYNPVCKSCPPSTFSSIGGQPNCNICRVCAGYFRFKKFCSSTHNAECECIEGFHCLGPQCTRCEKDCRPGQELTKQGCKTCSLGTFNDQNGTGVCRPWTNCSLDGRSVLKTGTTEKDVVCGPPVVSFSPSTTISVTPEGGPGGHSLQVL
4-1BBL (Homo sapiens), sequence (P41273 whole entry): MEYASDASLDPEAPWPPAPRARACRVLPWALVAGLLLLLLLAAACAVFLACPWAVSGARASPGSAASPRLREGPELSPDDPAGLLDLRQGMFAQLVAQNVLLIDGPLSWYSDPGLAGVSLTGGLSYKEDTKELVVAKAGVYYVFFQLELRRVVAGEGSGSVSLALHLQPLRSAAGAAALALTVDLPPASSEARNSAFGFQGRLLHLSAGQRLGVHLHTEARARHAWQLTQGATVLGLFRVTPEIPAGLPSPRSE

Take 4-1BB (from UniProt Q07011): the Kd in experiment [1] was 0.0856 µM.
“mouse siglec-4–HIS protein (domain or fragment)”: the Kd in experiment [2] was 0.86 µM.
